Data: publication PMC4175178

Target: 60S ribosomal subunit-nascent chain complex made from F-VHP-β RNCs (not stated | rabbit (endogenous in reticulocyte lysate, RRL)) (UniProt G1TSG1)

ubiquitination of 60S versus 80S nascent chain complexes, separated on a sucrose gradient and given purified Listerin, E1, E2, ubiquitin and ATP (Figure S4E): 10 fold
Substance: FLAG-tagged human Listerin (from UniProt O94822 1-1766) (enzyme)
